Test in all cases: cell-based or functional assay
The target in one experiment is T1, human GIP receptor (human, UniProt P48546 22-466).
T1 sequence (looked up): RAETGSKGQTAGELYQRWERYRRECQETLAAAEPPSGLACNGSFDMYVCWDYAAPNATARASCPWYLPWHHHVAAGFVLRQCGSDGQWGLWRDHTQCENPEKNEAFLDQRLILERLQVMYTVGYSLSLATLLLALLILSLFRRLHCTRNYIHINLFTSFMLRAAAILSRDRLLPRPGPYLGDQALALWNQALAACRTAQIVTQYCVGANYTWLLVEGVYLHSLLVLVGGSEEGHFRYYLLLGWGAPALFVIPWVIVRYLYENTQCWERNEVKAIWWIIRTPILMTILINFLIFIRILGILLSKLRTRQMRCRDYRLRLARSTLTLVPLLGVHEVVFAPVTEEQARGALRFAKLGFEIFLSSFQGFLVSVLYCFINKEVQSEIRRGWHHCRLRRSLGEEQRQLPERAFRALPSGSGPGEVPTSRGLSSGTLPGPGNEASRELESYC

A further experiment has as its target human GLP-1 receptor (human, UniProt P43220 24-463).
A further experiment addresses human glucagon receptor (human, UniProt P47871 26-477).

Non-standard residues stand in square brackets, D forms with d. No end group written: not given here. Aib = CC(C)(N)C(=O)O

human glucagon receptor, sequence (P47871 26-477): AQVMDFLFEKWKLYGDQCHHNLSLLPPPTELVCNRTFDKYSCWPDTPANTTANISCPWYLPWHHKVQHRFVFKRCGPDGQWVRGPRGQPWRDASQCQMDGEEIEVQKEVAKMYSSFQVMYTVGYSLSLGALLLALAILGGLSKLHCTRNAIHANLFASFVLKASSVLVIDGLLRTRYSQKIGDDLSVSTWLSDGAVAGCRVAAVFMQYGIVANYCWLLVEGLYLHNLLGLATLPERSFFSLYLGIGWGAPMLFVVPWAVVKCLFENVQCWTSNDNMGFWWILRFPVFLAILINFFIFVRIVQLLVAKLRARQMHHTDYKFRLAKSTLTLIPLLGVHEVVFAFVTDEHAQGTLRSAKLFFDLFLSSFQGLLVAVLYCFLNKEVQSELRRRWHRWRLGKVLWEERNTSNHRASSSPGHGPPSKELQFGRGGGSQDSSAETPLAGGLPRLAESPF

B1: exendin-4 derivative SEQ ID NO: 24 (comparison compound, Leu in position 14) (peptide)
peptide: H[Aib]QGTFTSDLSKQLDEQRAKLFIEWL[Aib]AGGPSSGAPPPS-NH2
modifications: N-terminus assumed
SMILES: CC[C@H](C)[C@H](NC(=O)[C@H](Cc1ccccc1)NC(=O)[C@H](CC(C)C)NC(=O)[C@H](CCCCN)NC(=O)[C@H](C)NC(=O)[C@H](CCCNC(=N)N)NC(=O)[C@H](CCC(N)=O)NC(=O)[C@H](CCC(=O)O)NC(=O)[C@H](CC(=O)O)NC(=O)[C@H](CC(C)C)NC(=O)[C@H](CCC(N)=O)NC(=O)[C@H](CCCCN)NC(=O)[C@H](CO)NC(=O)[C@H](CC(C)C)NC(=O)[C@H](CC(=O)O)NC(=O)[C@H](CO)NC(=O)[C@@H](NC(=O)[C@H](Cc1ccccc1)NC(=O)[C@@H](NC(=O)CNC(=O)[C@H](CCC(N)=O)NC(=O)C(C)(C)NC(=O)[C@@H](N)Cc1c[nH]cn1)[C@@H](C)O)[C@@H](C)O)C(=O)N[C@@H](CCC(=O)O)C(=O)N[C@@H](Cc1c[nH]c2ccccc12)C(=O)N[C@@H](CC(C)C)C(=O)NC(C)(C)C(=O)N[C@@H](C)C(=O)NCC(=O)NCC(=O)N1CCC[C@H]1C(=O)N[C@@H](CO)C(=O)N[C@@H](CO)C(=O)NCC(=O)N[C@@H](C)C(=O)N1CCC[C@H]1C(=O)N1CCC[C@H]1C(=O)N1CCC[C@H]1C(=O)N[C@@H](CO)C(N)=O
Take B1: the “EC50 hGIP-1 (cAMP formation, GIP receptor)” value in the experiment with human GIP receptor was 114 nM. The “EC50 hGLP-1R (cAMP formation)” value in the experiment with human GLP-1 receptor is 0.008 nM. In the experiment with human glucagon receptor, the “EC50 hGlucagon-R (cAMP formation)” value is 3.09 nM.

B2: exendin-4 derivative SEQ ID NO: 23 (comparison compound, non-functionalized Lys in position 14) (peptide)
peptide: H[Aib]QGTFTSDLSKQKDEQRAKLFIEWL[Aib]AGGPSSGAPPPS-NH2
modifications: N-terminus assumed
SMILES: CC[C@H](C)[C@H](NC(=O)[C@H](Cc1ccccc1)NC(=O)[C@H](CC(C)C)NC(=O)[C@H](CCCCN)NC(=O)[C@H](C)NC(=O)[C@H](CCCNC(=N)N)NC(=O)[C@H](CCC(N)=O)NC(=O)[C@H](CCC(=O)O)NC(=O)[C@H](CC(=O)O)NC(=O)[C@H](CCCCN)NC(=O)[C@H](CCC(N)=O)NC(=O)[C@H](CCCCN)NC(=O)[C@H](CO)NC(=O)[C@H](CC(C)C)NC(=O)[C@H](CC(=O)O)NC(=O)[C@H](CO)NC(=O)[C@@H](NC(=O)[C@H](Cc1ccccc1)NC(=O)[C@@H](NC(=O)CNC(=O)[C@H](CCC(N)=O)NC(=O)C(C)(C)NC(=O)[C@@H](N)Cc1c[nH]cn1)[C@@H](C)O)[C@@H](C)O)C(=O)N[C@@H](CCC(=O)O)C(=O)N[C@@H](Cc1c[nH]c2ccccc12)C(=O)N[C@@H](CC(C)C)C(=O)NC(C)(C)C(=O)N[C@@H](C)C(=O)NCC(=O)NCC(=O)N1CCC[C@H]1C(=O)N[C@@H](CO)C(=O)N[C@@H](CO)C(=O)NCC(=O)N[C@@H](C)C(=O)N1CCC[C@H]1C(=O)N1CCC[C@H]1C(=O)N1CCC[C@H]1C(=O)N[C@@H](CO)C(N)=O
B2: in the experiment with human GIP receptor, the “EC50 hGIP-1 (cAMP formation, GIP receptor)” value stood at 177 nM. The “EC50 hGLP-1R (cAMP formation)” value with human GLP-1 receptor turned out to be 0.0525 nM. Moreover, the “EC50 hGlucagon-R (cAMP formation)” value with human glucagon receptor was 42.9 nM.

Values taken from US20150315260A1 (Sanofi, published 2015).
